One data set concerns the target T1, ngMutL (Neisseria gonorrhoeae (FA 1090 in Fig. …, UniProt Q5F8M6 1-658)).
T1 sequence: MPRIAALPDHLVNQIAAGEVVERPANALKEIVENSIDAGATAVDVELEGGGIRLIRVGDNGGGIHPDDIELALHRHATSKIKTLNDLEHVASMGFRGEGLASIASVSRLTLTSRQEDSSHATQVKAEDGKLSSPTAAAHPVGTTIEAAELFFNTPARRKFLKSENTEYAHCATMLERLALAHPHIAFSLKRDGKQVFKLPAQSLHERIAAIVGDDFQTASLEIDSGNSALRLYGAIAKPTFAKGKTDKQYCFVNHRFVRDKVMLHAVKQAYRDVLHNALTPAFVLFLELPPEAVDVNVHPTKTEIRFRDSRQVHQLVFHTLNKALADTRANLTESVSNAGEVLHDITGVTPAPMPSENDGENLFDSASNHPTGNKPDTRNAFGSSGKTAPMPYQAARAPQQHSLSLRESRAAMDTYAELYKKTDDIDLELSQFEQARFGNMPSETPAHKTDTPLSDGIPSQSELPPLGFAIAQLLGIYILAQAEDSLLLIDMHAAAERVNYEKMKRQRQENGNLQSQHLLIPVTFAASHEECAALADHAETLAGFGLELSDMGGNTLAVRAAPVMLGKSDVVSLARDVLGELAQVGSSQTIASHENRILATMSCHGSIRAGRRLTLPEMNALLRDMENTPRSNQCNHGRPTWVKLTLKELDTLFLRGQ
Nature of the data set: EMSA; ecMutS: 20 mM HEPES-KOH pH 7.9, 5 mM MgCl2, 120 mM KCl, 0.5 mg/mL BSA, 1 mM ADP, 37 C 15 min, 5 nM DNA; ecMutL/ngMutL: 20 mM HEPES pH 8.0, 100 mM KCl, 0.5 mg/mL BSA, 1 mM DTT, on ice 10 min, 20 nM DNA; gels in TAE at 4 C. As to conditions: protein: recombinant, tags: N-terminal His6, chain copies: 2. A general note: In EMSA bound probe runs differently from free probe, usually more slowly.

The next data set concerns the target ecMutL (Escherichia coli (K12 in Fig. S2 legend), UniProt P23367 1-615). The description is as above. As to conditions: protein: recombinant, tags: N-terminal His6, chain copies: 2.
Data set [1] addresses T2, ecMutS (Escherichia coli, UniProt P23909 1-853).
T2 sequence: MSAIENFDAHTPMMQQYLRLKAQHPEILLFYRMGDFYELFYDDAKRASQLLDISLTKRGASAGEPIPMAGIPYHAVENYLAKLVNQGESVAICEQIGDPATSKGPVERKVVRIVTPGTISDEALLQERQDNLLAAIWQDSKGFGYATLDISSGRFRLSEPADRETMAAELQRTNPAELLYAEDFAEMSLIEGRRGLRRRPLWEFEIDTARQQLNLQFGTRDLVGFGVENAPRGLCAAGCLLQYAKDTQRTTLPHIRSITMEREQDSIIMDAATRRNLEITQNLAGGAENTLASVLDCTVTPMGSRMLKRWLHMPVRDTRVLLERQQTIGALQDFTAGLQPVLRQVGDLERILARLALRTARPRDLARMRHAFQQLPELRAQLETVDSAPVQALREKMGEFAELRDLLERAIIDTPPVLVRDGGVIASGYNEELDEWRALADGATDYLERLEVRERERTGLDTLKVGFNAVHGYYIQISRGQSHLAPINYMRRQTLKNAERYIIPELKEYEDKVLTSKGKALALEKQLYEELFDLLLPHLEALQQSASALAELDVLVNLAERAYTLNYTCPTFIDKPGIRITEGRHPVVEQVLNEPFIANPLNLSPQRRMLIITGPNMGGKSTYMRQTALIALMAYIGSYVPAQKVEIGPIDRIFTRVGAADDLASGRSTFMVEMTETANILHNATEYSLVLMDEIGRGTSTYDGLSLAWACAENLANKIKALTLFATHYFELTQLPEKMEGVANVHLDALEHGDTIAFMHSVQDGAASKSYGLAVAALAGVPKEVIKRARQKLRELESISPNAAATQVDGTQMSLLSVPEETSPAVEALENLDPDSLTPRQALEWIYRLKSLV
In words: EMSA; 1 mM ADP, 5 mM MgCl2; ecMutS: 20 mM HEPES-KOH pH 7.9, 5 mM MgCl2, 120 mM KCl, 0.5 mg/mL BSA, 1 mM ADP, 37 C 15 min, 5 nM DNA; ecMutL/ngMutL: 20 mM HEPES pH 8.0, 100 mM KCl, 0.5 mg/mL BSA, 1 mM DTT, on ice 10 min, 20 nM DNA; gels in TAE at 4 C. As to conditions: protein: recombinant, tags: N-terminal His6, chain copies: 2.

Data set [2] has as its target T2, ecMutS. Nature of the data set: EMSA; ecMutS: 20 mM HEPES-KOH pH 7.9, 5 mM MgCl2, 120 mM KCl, 0.5 mg/mL BSA, 1 mM ADP, 37 C 15 min, 5 nM DNA; ecMutL/ngMutL: 20 mM HEPES pH 8.0, 100 mM KCl, 0.5 mg/mL BSA, 1 mM DTT, on ice 10 min, 20 nM DNA; gels in TAE at 4 C. The note with it: protein: recombinant; tags: N-terminal His6; chain copies: 2; text says bottom strand; blunt, one T:G mismatch at strand 1 position 22.

For data set [3], the target named is T2, ecMutS. Nature of the data set: competition; vs ds76-G/T-3', 65 nM ecMutS dimer; ecMutS: 20 mM HEPES-KOH pH 7.9, 5 mM MgCl2, 120 mM KCl, 0.5 mg/mL BSA, 1 mM ADP, 37 C 15 min, 5 nM DNA; ecMutL/ngMutL: 20 mM HEPES pH 8.0, 100 mM KCl, 0.5 mg/mL BSA, 1 mM DTT, on ice 10 min, 20 nM DNA; gels in TAE at 4 C. The note with it: protein: recombinant; tags: N-terminal His6; chain copies: 2; label: none; three stacked parallel intramolecular G4s.

[4] abbreviates: text says 5' for ecMutS assays, single parallel intramolecular G4.
[5] abbreviates: label: 5'-TAMRA, three stacked parallel intramolecular G4s.
[6] abbreviates: label: 3'-TAMRA, three stacked parallel intramolecular G4s.

Chain of ecMutL (P23367 whole entry): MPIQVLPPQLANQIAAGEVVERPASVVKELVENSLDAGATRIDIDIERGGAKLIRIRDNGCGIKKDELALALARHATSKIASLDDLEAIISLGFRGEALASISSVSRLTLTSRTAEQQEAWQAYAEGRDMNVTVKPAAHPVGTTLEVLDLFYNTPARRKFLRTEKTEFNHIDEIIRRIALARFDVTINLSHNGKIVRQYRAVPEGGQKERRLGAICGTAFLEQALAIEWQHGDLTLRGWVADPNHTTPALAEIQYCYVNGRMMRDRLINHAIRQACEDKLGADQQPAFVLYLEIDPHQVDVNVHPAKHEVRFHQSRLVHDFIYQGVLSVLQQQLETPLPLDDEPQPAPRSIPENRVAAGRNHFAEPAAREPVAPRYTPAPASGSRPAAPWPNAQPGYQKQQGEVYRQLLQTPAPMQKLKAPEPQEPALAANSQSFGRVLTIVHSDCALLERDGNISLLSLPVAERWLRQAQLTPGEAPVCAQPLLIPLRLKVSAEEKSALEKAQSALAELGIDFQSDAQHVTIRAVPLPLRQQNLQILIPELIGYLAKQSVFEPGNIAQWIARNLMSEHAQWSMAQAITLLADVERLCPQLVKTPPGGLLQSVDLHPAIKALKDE

B1: 95G4 (structured_DNA)
DNA: ATAGGACGCTGACACTGGTGCTTGGCAGCTGAGCCATATTTGGGTGGGTGGGTGGGTTGCTCGAGTAACGCTCATAGGATCCAAGCGCGAAAGGA
For B1, the Kd with ngMutL (setting [4]) is 41 ± 1 nM; with ecMutL (setting [4]) it was 120 ± 20 nM; with ecMutS [1] (setting [4]), 38 ± 5 nM.

B2: ds76-G/T-3' (dsDNA)
DNA 1: ATAGGACGCTGACACTGGTGCTTGGCAGCTGAGCCATATGCTCGAGTAACGCTCATAGGATCCAAGCGCGAAAGGA
DNA 2: TCCTTTCGCGCTTGGATCCTATGAGCGTTACTCGAGCATATGGCTCAGCTGCCAGGCACCAGTGTCAGCGTCCTAT
In the case of B2, the Kd with ecMutS [2] turned out to be 35 ± 3 nM.

B3: WT-5' (structured_DNA)
DNA: GCCGCGGAAAGGAAGGGGAGGGGCTGGGAGGGCCCGGAGGGGGCTGGGCCGGGGACCCGGGAGGGGTCGGGACGGGGCGGGGTCCGCGCGGAGGAG
Consider B3, for which the Kd is 115 ± 30 nM with ecMutL (setting [5]) and 15 ± 6 nM with ecMutS [1] (setting [5]).

B4: G250A-3' (structured_DNA)
DNA: GCCGCGGAAAGGAAGGGGAGGGGCTGGGAGGGCCCGGAGGGGGCTGGGCCGGGGACCCGGAAGGGGTCGGGACGGGGCGGGGTCCGCGCGGAGGAG
B4: the dissociation constant (Kd) with ngMutL (setting [6]) is 42 ± 2 nM.

B5: G228A-5' (structured_DNA)
DNA: GCCGCGGAAAGGAAGGGGAGGGGCTGGGAGGGCCCGGAAGGGGCTGGGCCGGGGACCCGGGAGGGGTCGGGACGGGGCGGGGTCCGCGCGGAGGAG
For the molecule B5, the results for the Kd with ecMutL (setting [5]) and with ecMutS [1] (setting [5]) were 170 ± 40 nM and 24 ± 6 nM, respectively.

B6: WT (structured_DNA)
DNA: GCCGCGGAAAGGAAGGGGAGGGGCTGGGAGGGCCCGGAGGGGGCTGGGCCGGGGACCCGGGAGGGGTCGGGACGGGGCGGGGTCCGCGCGGAGGAG
Turning to B6, in the data set with ecMutS [3], the IC50 amounted to 32 ± 3 nM and the Ki was determined as 28 ± 5 nM.

B7: G250A (unlabeled) (structured_DNA)
DNA: GCCGCGGAAAGGAAGGGGAGGGGCTGGGAGGGCCCGGAGGGGGCTGGGCCGGGGACCCGGAAGGGGTCGGGACGGGGCGGGGTCCGCGCGGAGGAG
In the case of B7, in the data set with ecMutS [3], the IC50 amounted to 40 ± 15 nM and the Ki is 35 ± 15 nM.

B8: G242,243A-5' (structured_DNA)
DNA: GCCGCGGAAAGGAAGGGGAGGGGCTGGGAGGGCCCGGAGGGGGCTGGGCCGGAAACCCGGGAGGGGTCGGGACGGGGCGGGGTCCGCGCGGAGGAG
As for B8, the Kd with ecMutL (setting [5]) turned out to be 110 ± 20 nM; in the data set with ecMutS [1] (setting [5]), 27 ± 4 nM.

B9: WT-3' (structured_DNA)
DNA: GCCGCGGAAAGGAAGGGGAGGGGCTGGGAGGGCCCGGAGGGGGCTGGGCCGGGGACCCGGGAGGGGTCGGGACGGGGCGGGGTCCGCGCGGAGGAG
As to B9, the Kd in the data set with ngMutL (setting [6]) came out at 49 ± 3 nM.

B10: G242,243A (unlabeled) (structured_DNA)
DNA: GCCGCGGAAAGGAAGGGGAGGGGCTGGGAGGGCCCGGAGGGGGCTGGGCCGGAAACCCGGGAGGGGTCGGGACGGGGCGGGGTCCGCGCGGAGGAG
With B10, in the data set with ecMutS [3], the IC50 was 28 ± 7 nM and the Ki stood at 25 ± 8 nM.

B11: G228A-3' (structured_DNA)
DNA: GCCGCGGAAAGGAAGGGGAGGGGCTGGGAGGGCCCGGAAGGGGCTGGGCCGGGGACCCGGGAGGGGTCGGGACGGGGCGGGGTCCGCGCGGAGGAG
On to B11, for which, in the data set with ngMutL (setting [6]), the Kd was found to be 44 ± 3 nM.

B12: G242,243A-3' (structured_DNA)
DNA: GCCGCGGAAAGGAAGGGGAGGGGCTGGGAGGGCCCGGAGGGGGCTGGGCCGGAAACCCGGGAGGGGTCGGGACGGGGCGGGGTCCGCGCGGAGGAG
In the case of B12, in the data set with ngMutL (setting [6]), the Kd is 51 ± 2 nM.

B13: G250A-5' (structured_DNA)
DNA: GCCGCGGAAAGGAAGGGGAGGGGCTGGGAGGGCCCGGAGGGGGCTGGGCCGGGGACCCGGAAGGGGTCGGGACGGGGCGGGGTCCGCGCGGAGGAG
Consider B13, for which the figures for the Kd with ecMutL (setting [5]) and with ecMutS [1] (setting [5]) were 130 ± 30 nM and 30 ± 7 nM, respectively.

B14: G228A (unlabeled) (structured_DNA)
DNA: GCCGCGGAAAGGAAGGGGAGGGGCTGGGAGGGCCCGGAAGGGGCTGGGCCGGGGACCCGGGAGGGGTCGGGACGGGGCGGGGTCCGCGCGGAGGAG
B14: in the data set with ecMutS [3], the IC50 was determined as 35 ± 4 nM and the Ki was 31 ± 6 nM.

B15: ds96/96* (dsDNA)
DNA 1: ACCTGGATGCCTATAGGGCGAATTGGGTACCGCTGAATTGCACTGGACTTGATCCTCGATGATCCTAAGCTAAGCTTCAGCTCCAGCCTAAGCCTG
DNA 2: CAGGCTTAGGCTGGAGCTGAAGCTTAGCTTAGGATCATCGAGGATCGAGTCCGGTGCAATTCAGCGGTACCCAATTCGCCCTATAGGCATCCAGGT
Turning to B15, in the data set with ngMutL (label: 3'-TAMRA on strand 1, blunt), the Kd was 125 ± 5 nM.

For orientation: Kd means the constant that tells how readily two partners part at equilibrium. One may read the IC50 as the concentration that inhibits the measured activity by half. The Ki is the dissociation constant of the complex between target and ligand, obtained from inhibition or displacement.

The values above are taken from PMC9405553, “G-Quadruplex Formed by the Promoter Region of the hTERT Gene: Structure-Driven Effects on DNA Mismatch Repair Functions”.
